Results on four molecules are retold here after patent US20240216484A1 (URSAPHARM ARZNEIMITTEL, published 2024).

B1: HZI 2-05 (Anlec in TBS; lectin batch isolated from bromelain) (other)
chain: MSGLVKLGLWGGNEGTLQDIDGHPTRLTKIVIRSAHAIDALQFDYVEDGKTFAAGQWGGNGGKSDTIEFQPGEYLIAIKGTTGALGAVTNLVRSLTFISNMRTYGPFGLEHGTPFSVPVASGRIVAFYGRFGSLVDAFGIYLMPY
B2: Acm-JRL 2 (Anlec in TBS, Batch 2) (other)
chain: B1 chain
B3: HZI 2-10 (Anlec in TBS; lectin batch isolated from bromelain, protease inhibited with MMTS) (other)
chain: B1 chain
B4: HZI 2-06 (Anlec in dist. water; lectin batch isolated from bromelain) (other)
chain: B1 chain

For this test, the target named is SARS-CoV-2 spike protein, extracellular domain (1-1213), recombinant from HEK293 cells (SARS-CoV-2, UniProt P0DTC2 14-1213).
On to B1, for which the koff (as a rule, the first-order rate constant of dissociation) stood at 0.005 s⁻¹ and the kon (in general, a measure of how fast the partners come together) is 133 M⁻¹ s⁻¹. Consider B2, for which the koff was determined as 0.003 s⁻¹. Take B3: the koff was determined as 0.003 s⁻¹ and the kon was 286 M⁻¹ s⁻¹. The matching figures for B4: 0.008 s⁻¹ and 359 M⁻¹ s⁻¹.
